# In patent US20210246166A1 (Bayer, published 2021):
# Bridge positions count the residues as written; N and C are the ends. Square brackets hold non-standard residues; d marks the D form. Ends that are not written are not given here. Pro(trans-4-F) = O=C(O)[C@@H]1C[C@@H](F)CN1; Oic = O=C(O)[C@@H]1C[C@@H]2CCCC[C@@H]2N1; Hyp = O=C(O)[C@@H]1C[C@@H](O)CN1; NMeI = CC[C@H](C)[C@H](NC)C(=O)O; tBuAla = CC(C)(C)C[C@H](N)C(=O)O; 3Pal = N[C@@H](Cc1cccnc1)C(=O)O; 2Thi = N[C@@H](Cc1cccs1)C(=O)O; Pen = CC(C)(S)[C@H](N)C(=O)O; αMeP = C[C@@]1(C(=O)O)CCCN1; NMeC = CN[C@@H](CS)C(=O)O; Orn = NCCC[C@H](N)C(=O)O; Abu = CC[C@H](N)C(=O)O; Aib = CC(C)(N)C(=O)O; Sar = CNCC(=O)O
# T1: recombinant rat MASP1 active protease (amino acids 302-704, C-terminal His Tag) (rat, UniProt Q8CHN8 302-704)
# T1 sequence: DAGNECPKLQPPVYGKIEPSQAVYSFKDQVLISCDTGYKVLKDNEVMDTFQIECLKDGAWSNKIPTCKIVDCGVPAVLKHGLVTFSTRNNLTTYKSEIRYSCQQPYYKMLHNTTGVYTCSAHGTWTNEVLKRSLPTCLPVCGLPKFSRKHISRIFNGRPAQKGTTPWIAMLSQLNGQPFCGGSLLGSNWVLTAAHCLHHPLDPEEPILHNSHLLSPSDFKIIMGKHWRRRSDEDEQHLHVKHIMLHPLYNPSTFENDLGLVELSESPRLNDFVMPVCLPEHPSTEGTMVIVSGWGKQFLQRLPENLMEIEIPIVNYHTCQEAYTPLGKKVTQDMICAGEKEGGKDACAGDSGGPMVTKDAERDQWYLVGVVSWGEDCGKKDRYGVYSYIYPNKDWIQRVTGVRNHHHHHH
# T2: recombinant human MASP1 active protease (amino acids 297-699, C-terminal His Tag) (human, UniProt P48740 297-699)
# T2 sequence: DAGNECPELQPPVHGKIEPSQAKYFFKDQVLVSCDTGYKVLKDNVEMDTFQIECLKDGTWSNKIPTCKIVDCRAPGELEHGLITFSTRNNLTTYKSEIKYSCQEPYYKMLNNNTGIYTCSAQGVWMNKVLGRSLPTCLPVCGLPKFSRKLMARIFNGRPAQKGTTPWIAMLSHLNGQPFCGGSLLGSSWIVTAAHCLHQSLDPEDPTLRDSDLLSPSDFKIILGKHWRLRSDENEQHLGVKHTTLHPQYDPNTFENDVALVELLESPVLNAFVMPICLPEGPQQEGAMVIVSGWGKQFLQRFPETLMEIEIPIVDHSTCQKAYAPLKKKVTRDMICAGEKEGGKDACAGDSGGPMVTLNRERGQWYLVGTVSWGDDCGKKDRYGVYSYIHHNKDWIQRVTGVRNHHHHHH
# B1: Example 479: (Orn)-IC+SRS-((tBu)A)-PPI-((N-Me)C)+IPD-OH (peptide)
# peptide: [Orn]ICSRS[tBuAla]PPI[NMeC]IPD-OH
# modifications: disulfide 3-11; N-terminus assumed
# SMILES: CC[C@H](C)[C@H](NC(=O)[C@@H](N)CCCN)C(=O)N[C@H]1CSSC[C@@H](C(=O)N[C@H](C(=O)N2CCC[C@H]2C(=O)N[C@@H](CC(=O)O)C(=O)O)[C@@H](C)CC)N(C)C(=O)[C@H]([C@@H](C)CC)NC(=O)[C@@H]2CCCN2C(=O)[C@@H]2CCCN2C(=O)[C@H](CC(C)(C)C)NC(=O)[C@H](CO)NC(=O)[C@H](CCCNC(=N)N)NC(=O)[C@H](CO)NC1=O
# B2: ((N-Me)G)-IC+SRSLP-(Oic)-I-(Pen)+IPD-OH (peptide)
# peptide: [Sar]ICSRSLP[Oic]I[Pen]IPD-OH
# modifications: disulfide 3-11; N-terminus assumed
# SMILES: CC[C@H](C)[C@H](NC(=O)CNC)C(=O)N[C@H]1CSSC(C)(C)[C@@H](C(=O)N[C@H](C(=O)N2CCC[C@H]2C(=O)N[C@@H](CC(=O)O)C(=O)O)[C@@H](C)CC)NC(=O)[C@H]([C@@H](C)CC)NC(=O)[C@@H]2C[C@@H]3CCCC[C@@H]3N2C(=O)[C@@H]2CCCN2C(=O)[C@H](CC(C)C)NC(=O)[C@H](CO)NC(=O)[C@H](CCCNC(=N)N)NC(=O)[C@H](CO)NC1=O
# B3: (3-Pal)-IC+SRS-((tBu)A)-PPI-(Pen)+IPD-NH2 (peptide)
# peptide: [3Pal]ICSRS[tBuAla]PPI[Pen]IPD-NH2
# modifications: disulfide 3-11; N-terminus assumed
# SMILES: CC[C@H](C)[C@H](NC(=O)[C@@H](N)Cc1cccnc1)C(=O)N[C@H]1CSSC(C)(C)[C@@H](C(=O)N[C@H](C(=O)N2CCC[C@H]2C(=O)N[C@@H](CC(=O)O)C(N)=O)[C@@H](C)CC)NC(=O)[C@H]([C@@H](C)CC)NC(=O)[C@@H]2CCCN2C(=O)[C@@H]2CCCN2C(=O)[C@H](CC(C)(C)C)NC(=O)[C@H](CO)NC(=O)[C@H](CCCNC(=N)N)NC(=O)[C@H](CO)NC1=O
# B4: (beta-2-thienylalanine)-IC+SRS-((tBu)A)-PPI-(Pen)+IPD-NH2 (peptide)
# peptide: [2Thi]ICSRS[tBuAla]PPI[Pen]IPD-NH2
# modifications: disulfide 3-11; N-terminus assumed
# SMILES: CC[C@H](C)[C@H](NC(=O)[C@@H](N)Cc1cccs1)C(=O)N[C@H]1CSSC(C)(C)[C@@H](C(=O)N[C@H](C(=O)N2CCC[C@H]2C(=O)N[C@@H](CC(=O)O)C(N)=O)[C@@H](C)CC)NC(=O)[C@H]([C@@H](C)CC)NC(=O)[C@@H]2CCCN2C(=O)[C@@H]2CCCN2C(=O)[C@H](CC(C)(C)C)NC(=O)[C@H](CO)NC(=O)[C@H](CCCNC(=N)N)NC(=O)[C@H](CO)NC1=O
# B5: Ac-G-((N-Me)I)-C+SRSLPPIC+IPD-OH (peptide)
# peptide: Ac-G[NMeI]CSRSLPPICIPD-OH
# modifications: disulfide 3-11
# SMILES: CC[C@H](C)[C@@H]1NC(=O)[C@@H]2CCCN2C(=O)[C@@H]2CCCN2C(=O)[C@H](CC(C)C)NC(=O)[C@H](CO)NC(=O)[C@H](CCCNC(=N)N)NC(=O)[C@H](CO)NC(=O)[C@@H](NC(=O)[C@H]([C@@H](C)CC)N(C)C(=O)CNC(C)=O)CSSC[C@@H](C(=O)N[C@H](C(=O)N2CCC[C@H]2C(=O)N[C@@H](CC(=O)O)C(=O)O)[C@@H](C)CC)NC1=O
# B6: Example 286: GIC+SRSLPPIC+I-(Aib)-D-OH (peptide)
# peptide: GICSRSLPPICI[Aib]D-OH
# modifications: disulfide 3-11; N-terminus assumed
# SMILES: CC[C@H](C)[C@H](NC(=O)CN)C(=O)N[C@H]1CSSC[C@@H](C(=O)N[C@H](C(=O)NC(C)(C)C(=O)N[C@@H](CC(=O)O)C(=O)O)[C@@H](C)CC)NC(=O)[C@H]([C@@H](C)CC)NC(=O)[C@@H]2CCCN2C(=O)[C@@H]2CCCN2C(=O)[C@H](CC(C)C)NC(=O)[C@H](CO)NC(=O)[C@H](CCCNC(=N)N)NC(=O)[C@H](CO)NC1=O
# B7: Example 348: GIC+SRSLPPIC+I-(Hyp)-D-OH (peptide)
# peptide: GICSRSLPPICI[Hyp]D-OH
# modifications: disulfide 3-11; N-terminus assumed
# SMILES: CC[C@H](C)[C@H](NC(=O)CN)C(=O)N[C@H]1CSSC[C@@H](C(=O)N[C@H](C(=O)N2C[C@H](O)C[C@H]2C(=O)N[C@@H](CC(=O)O)C(=O)O)[C@@H](C)CC)NC(=O)[C@H]([C@@H](C)CC)NC(=O)[C@@H]2CCCN2C(=O)[C@@H]2CCCN2C(=O)[C@H](CC(C)C)NC(=O)[C@H](CO)NC(=O)[C@H](CCCNC(=N)N)NC(=O)[C@H](CO)NC1=O
# B8: Example 287: ((N-Me)G)-IC+SRSLPPIC+I-((trans-4-Fluoro)P)-D-OH (peptide)
# peptide: [Sar]ICSRSLPPICI[Pro(trans-4-F)]D-OH
# modifications: disulfide 3-11; N-terminus assumed
# SMILES: CC[C@H](C)[C@H](NC(=O)CNC)C(=O)N[C@H]1CSSC[C@@H](C(=O)N[C@H](C(=O)N2C[C@H](F)C[C@H]2C(=O)N[C@@H](CC(=O)O)C(=O)O)[C@@H](C)CC)NC(=O)[C@H]([C@@H](C)CC)NC(=O)[C@@H]2CCCN2C(=O)[C@@H]2CCCN2C(=O)[C@H](CC(C)C)NC(=O)[C@H](CO)NC(=O)[C@H](CCCNC(=N)N)NC(=O)[C@H](CO)NC1=O
# B9: Example 367: ((N-Me)G)-IC+SRSLPPIC+I-(Oic)-D-OH (peptide)
# peptide: [Sar]ICSRSLPPICI[Oic]D-OH
# modifications: disulfide 3-11; N-terminus assumed
# SMILES: CC[C@H](C)[C@H](NC(=O)CNC)C(=O)N[C@H]1CSSC[C@@H](C(=O)N[C@H](C(=O)N2[C@H](C(=O)N[C@@H](CC(=O)O)C(=O)O)C[C@@H]3CCCC[C@@H]32)[C@@H](C)CC)NC(=O)[C@H]([C@@H](C)CC)NC(=O)[C@@H]2CCCN2C(=O)[C@@H]2CCCN2C(=O)[C@H](CC(C)C)NC(=O)[C@H](CO)NC(=O)[C@H](CCCNC(=N)N)NC(=O)[C@H](CO)NC1=O
# B10: Example 313: ((N-Me)G)-IC+SRSLPPIC+I-(Abu)-D-OH (peptide)
# peptide: [Sar]ICSRSLPPICI[Abu]D-OH
# modifications: disulfide 3-11; N-terminus assumed
# SMILES: CC[C@H](NC(=O)[C@@H](NC(=O)[C@@H]1CSSC[C@H](NC(=O)[C@@H](NC(=O)CNC)[C@@H](C)CC)C(=O)N[C@@H](CO)C(=O)N[C@@H](CCCNC(=N)N)C(=O)N[C@@H](CO)C(=O)N[C@@H](CC(C)C)C(=O)N2CCC[C@H]2C(=O)N2CCC[C@H]2C(=O)N[C@@H]([C@@H](C)CC)C(=O)N1)[C@@H](C)CC)C(=O)N[C@@H](CC(=O)O)C(=O)O
# B11: Example 289: ((N-Me)G)-IC+SRSLPP-IC+I-((2-Me)P)-D-OH (peptide)
# peptide: [Sar]ICSRSLPPICI[αMeP]D-OH
# modifications: disulfide 3-11; N-terminus assumed
# SMILES: CC[C@H](C)[C@H](NC(=O)CNC)C(=O)N[C@H]1CSSC[C@@H](C(=O)N[C@H](C(=O)N2CCC[C@@]2(C)C(=O)N[C@@H](CC(=O)O)C(=O)O)[C@@H](C)CC)NC(=O)[C@H]([C@@H](C)CC)NC(=O)[C@@H]2CCCN2C(=O)[C@@H]2CCCN2C(=O)[C@H](CC(C)C)NC(=O)[C@H](CO)NC(=O)[C@H](CCCNC(=N)N)NC(=O)[C@H](CO)NC1=O
# B12: aIC+SRS-((tBu)A)-PPI-(Pen)+IPD-NH2 (peptide)
# peptide: [dA]ICSRS[tBuAla]PPI[Pen]IPD-NH2
# modifications: disulfide 3-11; N-terminus assumed
# SMILES: CC[C@H](C)[C@H](NC(=O)[C@@H](C)N)C(=O)N[C@H]1CSSC(C)(C)[C@@H](C(=O)N[C@H](C(=O)N2CCC[C@H]2C(=O)N[C@@H](CC(=O)O)C(N)=O)[C@@H](C)CC)NC(=O)[C@H]([C@@H](C)CC)NC(=O)[C@@H]2CCCN2C(=O)[C@@H]2CCCN2C(=O)[C@H](CC(C)(C)C)NC(=O)[C@H](CO)NC(=O)[C@H](CCCNC(=N)N)NC(=O)[C@H](CO)NC1=O
# B13: (Orn)-IC+SRS-((tBu)A)-PPI-(Pen)+IPD-NH2 (peptide)
# peptide: [Orn]ICSRS[tBuAla]PPI[Pen]IPD-NH2
# modifications: disulfide 3-11; N-terminus assumed
# SMILES: CC[C@H](C)[C@H](NC(=O)[C@@H](N)CCCN)C(=O)N[C@H]1CSSC(C)(C)[C@@H](C(=O)N[C@H](C(=O)N2CCC[C@H]2C(=O)N[C@@H](CC(=O)O)C(N)=O)[C@@H](C)CC)NC(=O)[C@H]([C@@H](C)CC)NC(=O)[C@@H]2CCCN2C(=O)[C@@H]2CCCN2C(=O)[C@H](CC(C)(C)C)NC(=O)[C@H](CO)NC(=O)[C@H](CCCNC(=N)N)NC(=O)[C@H](CO)NC1=O
# Tests used:
# [1] = target: T1, recombinant rat MASP1 active protease …; assay: cell-based or functional assay
# [2] = target: T2, recombinant human MASP1 active protease …; assay: cell-based or functional assay
Binder,rat MASP1 IC50 [1],human MASP1 IC50 [2]
B1,84 nM,
B2,,2.5 nM
B3,,2.6 nM
B4,,2.6 nM
AICSRSLP[Oic]I[Pen]IPD-NH2 (disulfide 3-11; also: TFA salt) [AIC+SRSLP-(Oic)-I-(Pen)+IPD-NH2],,2.23 nM
B5,,2.09 nM
B6,230 nM,
B7,350 nM,
B8,250 nM,
B9,120 nM,
B10,220 nM,
AICSRSLP[Oic]I[Pen]IPD-OH (disulfide 3-11) [AIC+SRSLP-(Oic)-I-(Pen)+IPD-OH (salt free form)],,0.96 nM
B11,180 nM,
B12,,2 nM
B13,,2 nM
